Data on one molecule can be found in patent US20150216779A1, “COMPOSITIONS FOR TARGETED ANTI-AGING THERAPY” (THE TEXAS A&M UNIVERSITY SYSTEM, priority 2012, published 2015).

The conditions of data set [1]: heat-treated at 63 and 85° C.; cited from earlier work.
Data set [2] is described as follows: Turbidity after heating at 90° C. for 30 seconds (plate heat exchanger). The following applies: 1 mg/ml lactoferrin in 10 mM potassium acetate, pH 6.3; heated at 90° C. for 30 seconds. It counts as physicochemical. How it is done: Formulations containing heat-stabilized lactoferrin (1 mg/ml) without added branched-chain amino acids (Formulation 1) and heat-stabilized lactoferrin (1 mg/ml) with added branched-chain amino acids (2 mg/ml) (Formulation 2) were dissolved in the buffered solution (10 mM potassium acetate, pH 6.3) to make 4 liters solution. The two liquid formulations were heated by using a plate heat exchanger at 90° C. for 30 seconds, and cooled to 5° C., after which they were stored in sterilized bottles, and bubbled with carbon dioxide (CO2) in an aseptic room. The two resultant liquid formulations with a zinc ion concentration of 2.4 mg per 100 ml had excellent taste and appearance. […] Lactoferrin aggregation occurred at pH 6.3, which corresponded to its high thermal instability.

B1: lactoferrin: iron-binding glycoprotein of the transferrin family present in milk; unstabilized buffered solution at 1 mg/ml (protein, UniProt P24627 20-708, looked up)
Lactotransferrin: APRKNVRWCTISQPEWFKCRRWQWRMKKLGAPSITCVRRAFALECIRAIAEKKADAVTLDGGMVFEAGRDPYKLRPVAAEIYGTKESPQTHYYAVAVVKKGSNFQLDQLQGRKSCHTGLGRSAGWIIPMGILRPYLSWTESLEPLQGAVAKFFSASCVPCIDRQAYPNLCQLCKGEGENQCACSSREPYFGYSGAFKCLQDGAGDVAFVKETTVFENLPEKADRDQYELLCLNNSRAPVDAFKECHLAQVPSHAVVARSVDGKEDLIWKLLSKAQEKFGKNKSRSFQLFGSPPGQRDLLFKDSALGFLRIPSKVDSALYLGSRYLTTLKNLRETAEEVKARYTRVVWCAVGPEEQKKCQQWSQQSGQNVTCATASTTDDCIVLVLKGEADALNLDGGYIYTAGKCGLVPVLAENRKSSKHSSLDCVLRPTEGYLAVAVVKKANEGLTWNSLKDKKSCHTAVDRTAGWNIPMGLIVNQTGSCAFDEFFSQSCAPGADPKSRLCALCAGDDQGLDKCVPNSKEKYYGYTGAFRCLAEDVGDVAFVKNDTVWENTNGESTADWAKNLNREDFRLLCLDGTRKPVTEAQSCHLAVAPNHAVVSRSDRAAHVKQVLLHQQALFGKNGKNCPDKFCLFKSETKNLLFNDNTECLAKLGGRPTYEEYLGTEYVTAIANLKKCSTSPLLEACAFLTR
Consider B1, for which the “immunological properties after heat treatment” value in data set [1] is “loses its immunological properties”. In addition, the “appearance of solution after heating (turbidity / transparency)” value in data set [2] was “turbid”.
